A short description of one series: circular dichroism. The note with it: 10 mM phosphate; pH 7.5; 25 °C; 50 uM.
Series [1] concerns rHRSV-mCherry in HEp-2 cells. Description: rHRSV-mCherry inhibition assay. The note with it: Table 3 (Ala scan); HEp-2 cells, rHRSV-mCherry MOI 0.2, 2-fold serial dilutions (11 dilutions), duplicate; ± SD of fit. It counts as cell-based, human respiratory syncytial virus. On the procedure: To measure the inhibitory activity of the peptide, the mCherry red fluorescence was quantified 48 h postinfection (p.i.).
Viral replication was quantified by measuring the mCherry fluorescence at 48 h p.i. and normalized based on the fluorescence of infected and untreated cells. (B) Cytotoxicity assay. HEp-2 cells were incubated in the presence of serial dilutions of peptides, and cell survival was quantified using the CellTiter-Glo Luminescent cell viability assay 24 h after the addition of the peptides. The signal was normalized based on the luminescence obtained for untreated cells. Error bars are standard deviations from duplicates.
HEp-2 cells were seeded at 5 × 10^4 cells per well in a 96-well plate the day before the infection. Peptides were 2-fold serially diluted in dimethyl sulfoxide (DMSO) (11 dilutions) and then further diluted in EMEM without phenol red and preincubated for 15 to 20 min with rHRSV-mCherry ([24]) at a final dilution with an MOI of 0.2 ([24]). The cells were incubated with the virus-peptide mixtures for a period of 1.5 to 2 h. The medium was then replaced by EMEM without phenol red containing 2% fetal bovine serum and the same concentration of peptide as the one that was used during the infection step. Plates were incubated 48 h at 37°C, and the mCherry fluorescence was measured using a spectrofluorometer (Tecan infinite M200PRO) with excitation and emission wavelengths of 580 and 620 nm, respectively. Relative fluorescence was normalized by the fluorescence of nontreated infected cells. Noninfected HEp-2 cells were used as standards for fluorescence background levels. Each experiment was performed in duplicate and repeated at least twice. The resulting inhibition curves were fitted in Igor Pro as described above.

Structures are written as SMILES. Bridge positions count the residues as written; N and C are the ends. Square brackets hold non-standard residues; d marks the D form. Peptide text beside a SMILES is read from it. R5 = C=CCCC[C@@](C)(N)C(=O)O; S5 = C=CCCC[C@](C)(N)C(=O)O

In the series “circular dichroism”, `CC[C@H](C)[C@H](NC(=O)[C@H](CCCCN)NC(=O)[C@H](CCC(=O)O)NC(C)=O)C(=O)N[C@@]1(C)CCCC=CCCC[C@@](C)(C(=O)N[C@@H](Cc2ccccc2)C(=O)N[C@H](C(=O)N[C@@]2(C)CCCC=CCCC[C@@](C)(C(=O)N[C@@H](CC(C)C)C(=O)N[C@@H](CC(C)C)C(=O)N[C@@H](Cc3c[nH]cn3)C(=O)N[C@@H](CC(N)=O)C(=O)N[C@@H](C)C(N)=O)NC(=O)[C@H](CC(=O)O)NC(=O)[C@H](CO)NC(=O)[C@H](CCCCN)NC2=O)[C@@H](C)CC)NC(=O)[C@H](CC(C)C)NC(=O)[C@H](CO)NC(=O)[C@H](CCC(N)=O)NC1=O` [Peptide V516A] (Ac-EKI[S5]QSL[S5]FI[S5]KSD[S5]LLHNA-NH2; staple 4-8, 11-15) yielded a helicity of 49%. In series [1], this molecule gave a concentration giving a half-maximal response (EC50) of 600 ± 30 nM.
Taken in the same sequence, the figures for `CC[C@H](C)[C@H](NC(=O)[C@H](CCCCN)NC(=O)[C@H](CCC(=O)O)NC(C)=O)C(=O)N[C@@]1(C)CCCC=CCCC[C@@](C)(C(=O)N[C@@H](Cc2ccccc2)C(=O)N[C@H](C(=O)N[C@@]2(C)CCCC=CCCC[C@@](C)(C(=O)N[C@@H](CC(C)C)C(=O)N[C@@H](CC(C)C)C(=O)N[C@@H](Cc3c[nH]cn3)C(=O)N[C@@H](CC(N)=O)C(=O)N[C@H](C(N)=O)C(C)C)NC(=O)[C@H](C)NC(=O)[C@H](CO)NC(=O)[C@H](CCCCN)NC2=O)[C@@H](C)CC)NC(=O)[C@H](CC(C)C)NC(=O)[C@H](CO)NC(=O)[C@H](CCC(N)=O)NC1=O` [Peptide D510A] (Ac-EKI[S5]QSL[S5]FI[S5]KSA[S5]LLHNV-NH2; staple 4-8, 11-15) were 44% and 1100 ± 80 nM.
Taken in the same sequence, the figures for `CC[C@H](C)[C@H](NC(=O)[C@H](C)NC(=O)[C@]1(C)CCCC=CCCC[C@](C)(NC(=O)[C@@H](NC(=O)[C@H](CCCCN)NC(=O)[C@H](CCC(=O)O)NC(C)=O)[C@@H](C)CC)C(=O)N[C@@H](CCC(N)=O)C(=O)N[C@@H](CO)C(=O)N[C@@H](CC(C)C)C(=O)N1)C(=O)N[C@@]1(C)CCCC=CCCC[C@@](C)(C(=O)N[C@@H](CC(C)C)C(=O)N[C@@H](CC(C)C)C(=O)N[C@@H](Cc2c[nH]cn2)C(=O)N[C@@H](CC(N)=O)C(=O)N[C@H](C(N)=O)C(C)C)NC(=O)[C@H](CC(=O)O)NC(=O)[C@H](CO)NC(=O)[C@H](CCCCN)NC1=O` [Peptide F505A] (Ac-EKI[S5]QSL[S5]AI[S5]KSD[S5]LLHNV-NH2; staple 4-8, 11-15) were 64% and 1390 ± 100 nM.
`CC[C@H](C)[C@H](NC(=O)[C@H](CCCCN)NC(=O)[C@H](CCC(=O)O)NC(C)=O)C(=O)N[C@@]1(C)CCCC=CCCC[C@@](C)(C(=O)N[C@@H](Cc2ccccc2)C(=O)N[C@H](C(=O)N[C@@]2(C)CCCC=CCCC[C@@](C)(C(=O)N[C@@H](CC(C)C)C(=O)N[C@@H](CC(C)C)C(=O)N[C@@H](Cc3c[nH]cn3)C(=O)N[C@@H](CC(N)=O)C(=O)N[C@H](C(N)=O)C(C)C)NC(=O)[C@H](CC(=O)O)NC(=O)[C@H](CO)NC(=O)[C@H](CCCCN)NC2=O)[C@@H](C)CC)NC(=O)[C@H](C)NC(=O)[C@H](CO)NC(=O)[C@H](CCC(N)=O)NC1=O` [Peptide L503A] (Ac-EKI[S5]QSA[S5]FI[S5]KSD[S5]LLHNV-NH2; staple 4-8, 11-15) registered a helicity in “circular dichroism” of 38%. The same molecule returned an EC50 in series [1] of 950 ± 530 nM.
Taken in the same sequence, the figures for `CC[C@H](C)[C@H](NC(=O)[C@H](C)NC(=O)[C@H](CCC(=O)O)NC(C)=O)C(=O)N[C@@]1(C)CCCC=CCCC[C@@](C)(C(=O)N[C@@H](Cc2ccccc2)C(=O)N[C@H](C(=O)N[C@@]2(C)CCCC=CCCC[C@@](C)(C(=O)N[C@@H](CC(C)C)C(=O)N[C@@H](CC(C)C)C(=O)N[C@@H](Cc3c[nH]cn3)C(=O)N[C@@H](CC(N)=O)C(=O)N[C@H](C(N)=O)C(C)C)NC(=O)[C@H](CC(=O)O)NC(=O)[C@H](CO)NC(=O)[C@H](CCCCN)NC2=O)[C@@H](C)CC)NC(=O)[C@H](CC(C)C)NC(=O)[C@H](CO)NC(=O)[C@H](CCC(N)=O)NC1=O` [Peptide K498A] (Ac-EAI[S5]QSL[S5]FI[S5]KSD[S5]LLHNV-NH2; staple 4-8, 11-15) were 42% and 600 ± 20 nM.
Taken in the same sequence, the figures for `CC[C@H](C)[C@H](NC(=O)[C@H](CCCCN)NC(=O)[C@H](CCC(=O)O)NC(C)=O)C(=O)N[C@@]1(C)CCCC=CCCC[C@@](C)(C(=O)N[C@@H](Cc2ccccc2)C(=O)N[C@H](C(=O)N[C@@]2(C)CCCC=CCCC[C@@](C)(C(=O)N[C@@H](CC(C)C)C(=O)N[C@@H](CC(C)C)C(=O)N[C@@H](C)C(=O)N[C@@H](CC(N)=O)C(=O)N[C@H](C(N)=O)C(C)C)NC(=O)[C@H](CC(=O)O)NC(=O)[C@H](CO)NC(=O)[C@H](CCCCN)NC2=O)[C@@H](C)CC)NC(=O)[C@H](CC(C)C)NC(=O)[C@H](CO)NC(=O)[C@H](CCC(N)=O)NC1=O` [Peptide H514A] (Ac-EKI[S5]QSL[S5]FI[S5]KSD[S5]LLANV-NH2; staple 4-8, 11-15) were 55% and 520 ± 70 nM.
The molecule `CC[C@H](C)[C@H](NC(=O)[C@H](CCCCN)NC(=O)[C@H](CCC(=O)O)NC(C)=O)C(=O)N[C@@]1(C)CCCC=CCCC[C@@](C)(C(=O)N[C@@H](Cc2ccccc2)C(=O)N[C@H](C(=O)N[C@@]2(C)CCCC=CCCC[C@@](C)(C(=O)N[C@@H](CC(C)C)C(=O)N[C@@H](CC(C)C)C(=O)N[C@@H](Cc3c[nH]cn3)C(=O)N[C@@H](CC(N)=O)C(=O)N[C@H](C(N)=O)C(C)C)NC(=O)[C@H](CC(=O)O)NC(=O)[C@H](CO)NC(=O)[C@H](CCCCN)NC2=O)[C@@H](C)CC)NC(=O)[C@H](CC(C)C)NC(=O)[C@H](CO)NC(=O)[C@H](C)NC1=O` [Peptide Q501A] (Ac-EKI[S5]ASL[S5]FI[S5]KSD[S5]LLHNV-NH2; staple 4-8, 11-15) registered a helicity in the series “circular dichroism” of 12%. Moreover, the EC50 in series [1] was 280 ± 430 nM.
Turning to `CC[C@H](C)[C@@H]1NC(=O)[C@H](Cc2ccccc2)NC(=O)[C@@](C)(NC(=O)[C@H](CC(C)C)NC(=O)[C@H](CO)NC(=O)[C@]2(C)CCCC=CCCC[C@@](C)(NC(=O)[C@H](CCC(=O)O)NC(C)=O)C(=O)N[C@@H]([C@@H](C)CC)C(=O)N[C@@H](CC(N)=O)C(=O)N2)CCCC=CCCC[C@@](C)(C(=O)N[C@@H](CO)C(=O)N[C@@H](CC(=O)O)C(=O)N[C@@H](C)C(=O)N[C@@H](CC(C)C)C(=O)N[C@@H](CC(C)C)C(=O)N[C@@H](Cc2c[nH]cn2)C(=O)N[C@@H](CC(N)=O)C(=O)N[C@H](C(N)=O)C(C)C)NC(=O)[C@H](CCCNC(=N)N)NC1=O` [Peptide E511A] (Ac-E[R5]IN[S5]SL[S5]FIR[S5]SDALLHNV-NH2; staple 2-5, 8-12), in “circular dichroism”, the helicity turned out to be 73%. Moreover, in series [1], the EC50 was found to be 1000 ± 30 nM.
The like results for `CC[C@H](C)[C@H](NC(=O)[C@H](CCCCN)NC(=O)[C@H](CCC(=O)O)NC(C)=O)C(=O)N[C@@]1(C)CCCC=CCCC[C@@](C)(C(=O)N[C@@H](Cc2ccccc2)C(=O)N[C@H](C(=O)N[C@@]2(C)CCCC=CCCC[C@@](C)(C(=O)N[C@@H](CC(C)C)C(=O)N[C@@H](CC(C)C)C(=O)N[C@@H](Cc3c[nH]cn3)C(=O)N[C@@H](CC(N)=O)C(=O)N[C@H](C(N)=O)C(C)C)NC(=O)[C@H](CC(=O)O)NC(=O)[C@H](CO)NC(=O)[C@H](CCCCN)NC2=O)[C@@H](C)CC)NC(=O)[C@H](CC(C)C)NC(=O)[C@H](C)NC(=O)[C@H](CCC(N)=O)NC1=O` [Peptide S502A] (Ac-EKI[S5]QAL[S5]FI[S5]KSD[S5]LLHNV-NH2; staple 4-8, 11-15) were, in that order, 15% and 660 ± 260 nM.
The like results for `CC[C@H](C)[C@H](NC(=O)[C@H](CCCCN)NC(=O)[C@H](C)NC(C)=O)C(=O)N[C@@]1(C)CCCC=CCCC[C@@](C)(C(=O)N[C@@H](Cc2ccccc2)C(=O)N[C@H](C(=O)N[C@@]2(C)CCCC=CCCC[C@@](C)(C(=O)N[C@@H](CC(C)C)C(=O)N[C@@H](CC(C)C)C(=O)N[C@@H](Cc3c[nH]cn3)C(=O)N[C@@H](CC(N)=O)C(=O)N[C@H](C(N)=O)C(C)C)NC(=O)[C@H](CC(=O)O)NC(=O)[C@H](CO)NC(=O)[C@H](CCCCN)NC2=O)[C@@H](C)CC)NC(=O)[C@H](CC(C)C)NC(=O)[C@H](CO)NC(=O)[C@H](CCC(N)=O)NC1=O` [Peptide E497A] (Ac-AKI[S5]QSL[S5]FI[S5]KSD[S5]LLHNV-NH2; staple 4-8, 11-15) were, in that order, 38% and 1160 ± 80 nM.

Usually EC50 stands for the midpoint of the concentration-response curve. A higher EC50 goes with a less potent agent.
